Assay results as given in patent US12723100 (CSPC MEGALITH BIOPHARMACEUTICAL, dated 2026).

Legend:
[1] = biological target: T1, full-length human Nectin-4 on cells (human, UniProt Q96NY8 32-510); experiment: flow cytometry competition on CHO-Nectin-4 cells; competitor biotinylated human Nectin-1-His
T1 construct: the cell is named under assay; also called CHO-Nectin-4 cells; Nectin-4-CHO
T1 sequence: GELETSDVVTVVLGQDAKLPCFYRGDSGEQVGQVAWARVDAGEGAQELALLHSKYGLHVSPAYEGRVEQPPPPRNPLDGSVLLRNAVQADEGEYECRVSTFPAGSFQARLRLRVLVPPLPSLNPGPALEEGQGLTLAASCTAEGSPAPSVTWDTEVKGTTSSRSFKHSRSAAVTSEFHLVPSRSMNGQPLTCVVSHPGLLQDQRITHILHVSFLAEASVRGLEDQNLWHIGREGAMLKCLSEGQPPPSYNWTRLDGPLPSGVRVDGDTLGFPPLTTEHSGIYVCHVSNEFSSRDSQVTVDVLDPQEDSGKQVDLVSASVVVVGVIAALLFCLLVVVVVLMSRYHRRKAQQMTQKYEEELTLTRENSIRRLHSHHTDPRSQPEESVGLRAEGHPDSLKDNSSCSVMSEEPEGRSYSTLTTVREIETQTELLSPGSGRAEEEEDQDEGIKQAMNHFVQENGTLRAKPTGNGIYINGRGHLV
Method: The ability of disclosed Nectin4-specific antibodies to block Nectin-1 binding to Nectin-4 expressing cells (CHO cells transfected with human Nectin-4) was determined by FACS. Briefly, CHO-Nectin-4 cells were incubated with dilutions of the disclosed Nectin-4 purified recombinant antibodies. Then, biotinylated human Nectin-1 with His tag (ACROBiosystems, catalog number: PV1-H5223, lot: 733-38GS1-47, 0.75 ug/ml) was added to the plate. After 30-minute incubation, cells were washed, followed by adding Streptavidin Alexa 647 (1:1000) to the samples. After a 30 minute incubation, the samples were analyzed on a flow cytometry instrument (Intellicyte, IQue plus, Sartorius) for Nectin-1 blocking activity. The positive control antibody used in this blocking assay is a reference antibody (known to be a recombinant Nectin-4 specific antibody, made by Novarock Biotherapeutics, lot: 03042020KD).

[2] = biological target: T2, human Nectin-1 with His tag (ACROBiosystems, catalog number PV1-H5223) (human, UniProt Q15223 31-355, biotinylated in Example 3 (sites not given)); experiment: ELISA or Gator binding assay
T2 construct: Bought protein; also called biotinylated human Nectin-1
T2 sequence: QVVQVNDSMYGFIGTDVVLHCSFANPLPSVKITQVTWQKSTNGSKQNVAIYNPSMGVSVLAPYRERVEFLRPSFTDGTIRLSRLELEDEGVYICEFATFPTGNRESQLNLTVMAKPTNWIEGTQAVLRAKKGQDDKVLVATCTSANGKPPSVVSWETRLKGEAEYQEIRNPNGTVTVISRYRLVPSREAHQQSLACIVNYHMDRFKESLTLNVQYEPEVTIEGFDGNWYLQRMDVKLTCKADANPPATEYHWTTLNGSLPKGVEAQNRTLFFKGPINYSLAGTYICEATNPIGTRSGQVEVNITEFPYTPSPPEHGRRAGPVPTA

[3] = biological target: T3, human Nectin 2 (ACROBiosystems, Catalog no: PV2-H52E2) (human, UniProt Q92692 32-360); experiment: ELISA or Gator binding assay
T3 construct: extracellular domain
T3 sequence (looked up): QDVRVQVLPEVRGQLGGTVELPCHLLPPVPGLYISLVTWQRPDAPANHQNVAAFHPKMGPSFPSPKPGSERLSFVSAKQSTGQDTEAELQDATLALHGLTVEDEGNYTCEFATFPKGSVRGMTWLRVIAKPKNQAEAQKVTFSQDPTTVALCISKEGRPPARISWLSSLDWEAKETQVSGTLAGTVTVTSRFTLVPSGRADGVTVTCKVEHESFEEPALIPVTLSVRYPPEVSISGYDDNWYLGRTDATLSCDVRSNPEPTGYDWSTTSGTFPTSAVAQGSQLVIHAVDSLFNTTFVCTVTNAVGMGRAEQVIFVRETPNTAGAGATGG

[4] = biological target: T4, cynomolgus monkey Nectin-4 (cynomolgus monkey, UniProt Q96NY8 32-510 (human entry)); experiment: flow cytometry, transfected 293T cells; +++ EC50 less than 5 nM
T4 construct: Transiently expressed on 293T cells; also called Cyno Nectin-4
T4 chain: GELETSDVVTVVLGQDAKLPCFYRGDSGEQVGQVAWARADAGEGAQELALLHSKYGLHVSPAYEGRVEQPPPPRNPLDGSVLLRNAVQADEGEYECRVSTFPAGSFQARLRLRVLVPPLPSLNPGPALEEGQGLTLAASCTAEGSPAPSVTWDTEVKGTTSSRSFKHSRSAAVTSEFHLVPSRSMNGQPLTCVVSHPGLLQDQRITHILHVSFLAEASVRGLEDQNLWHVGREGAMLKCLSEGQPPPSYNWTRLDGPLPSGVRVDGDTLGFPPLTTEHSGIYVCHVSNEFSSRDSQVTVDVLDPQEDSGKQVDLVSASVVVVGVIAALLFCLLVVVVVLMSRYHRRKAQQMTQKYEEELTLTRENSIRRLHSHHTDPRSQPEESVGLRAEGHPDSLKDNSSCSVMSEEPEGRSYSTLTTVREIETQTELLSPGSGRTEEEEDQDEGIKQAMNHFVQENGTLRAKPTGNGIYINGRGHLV
Method: CDNAs encoding Nectin-4 protein from cynomolgus monkey (SEQ ID NO: 62), rat (SEQ ID NO: 63), or mouse (SEQ ID NO: 64) were separately cloned into a pcDNA3.1-based mammalian expression plasmid. The respective plasmids were transfected to human 293T cells in a similar way described in Example 6. The binding EC50 of disclosed human Nectin-4 antibodies to species-specific Nectin-4 transiently expressed on 293T cell surface was measured by flow cytometry.

[5] = biological target: T1, full-length human Nectin-4 on cells; experiment: flow cytometry, SKBR3 cells (endogenous Nectin-4)
Method: The binding specificity of the disclosed anti-Nectin-4 antibodies was also assessed by FACS. Briefly, CHO-Nectin-4 cells (vs. parental CHO cells) or endogenous cell lines expressing Nectin-4 (T-47D) were incubated with dilutions of purified recombinant antibodies. Cells were washed, and specific antibody binding was detected with Alexa 647 labeled goat anti-mouse IgG antibody. Flow cytometric analysis was performed on a flow cytometry instrument (Intellicyte, IQue plus, Sartorius).
N4_mAb 1 to N4_mAb 8 antibodies bind to CHO-Nectin-4 cells and SKBR3 cells by FACS.

Binder	EC50 [1] [nM]	binding result [2]	binding result [3]	EC50 [4] [nM]	EC50 [5] [nM]
N4_mAb 1 (antibody, human IgG1, V domains shown, Tested as chimera (murine variable regions, human IgG1/kappa constants); not shown: human IgG1 constant region (Uniprot P01857); human Kappa light chain constant region (UniProt P01834)) VH: QVQLKQSGPGLVQPSQSLSITCTVSGFSLTNYGVNWVRQPPGKGLEWLGVIWSGGSTDYNAAFISRLSISKDISKSQVFFKMNSLQADDTAKYYCAREGYDGYAMDYWGQGTSVTVSS VL: DIQMTQSPASLSVSVGETVTITCRASENIFSSLAWYQQKQGKSPQLLVYGATNLADGVPSRFSGSGSGTQYSLKINSLQSEDFGTYWCQHFWGNPWTFGGGTKLEIK	0.78	no binding	no binding	< 5	0.24
N4_mAb 5 (antibody, human IgG1, V domains shown, Tested as chimera (human IgG1/kappa constants); not shown: human IgG1 constant region (Uniprot P01857); human Kappa light chain constant region (UniProt P01834)) VH: EVQLQQSGPDLVKPGASVKISCKASGYSFTGHYMHWVKQSHGKSLEWIGRVNPNNGGSSYNQKFKDKAILTVDKSSTTAYMELRSLTSEDSAVYYCARDPLGGSYGFAYWGQGTLVTVSA VL: DIVLTQSPASLAVSLGQRATISCRASQSVTTSSYSYMHWYQQKPGQPPKLLIKYASNLESGVPARFSGSGSGTDFTLNIHPVEEEDTATYYCQHSWEIPYTFGGGTKLEMK	0.5	no binding	no binding	< 5	0.52
N4_mAb 6 (antibody, human IgG1, V domains shown, Tested as chimera (murine variable regions, human IgG1/kappa constants); not shown: human IgG1 constant region (Uniprot P01857); human Kappa light chain constant region (UniProt P01834)) VH: QVQLQQSGPELVKPGASVRISCKASGYTFTTYYIHWVKQRPGQGLEWIGWIYPGNVNTKYTENFKDKATLTADKSSSTAYMQLSSLTSEDSAVYFCARGLYYFDFWGQGTTLTVSS VL: SIVMTQTPKFLLVSAGDRVTITCKASQSVNNDVAWYQQKPGQSPKLLIYYASNRDTGVPDRFTGSGFGTDFTFTISSVQAEDLAVYFCQQDYSSPYTFGGGTKLEIK	0.12	no binding	no binding	< 5	0.04
N4_mAb 7 (antibody, human IgG1, V domains shown, Tested as chimera (murine variable regions, human IgG1/kappa constants); not shown: human IgG1 constant region (Uniprot P01857); human Kappa light chain constant region (UniProt P01834)) VH: QVQLQQSGPELVKPGASVKMSCKASGYTFTTYYIHWVKQRPGQGLEWIGWIYPGNAGIKSNEKFKGKTTLTADKSSSTAYMLLSSLTSEDSAIYFCARGVYFFDYWGQGTTLTVSS VL: SIVMTQTPKFLLVSAGDRVTITCKASQSVNNDVSWFQQKPGQSPKLLIYYASNRYTGVPDRFSGSGYGTDFTFTITTVQAEDLAVYFCQQDYSSPYTFGGGTKLEIK	0.21	no binding	no binding	< 5	0.05
N4_mAb 8 (antibody, human IgG1, V domains shown, Tested as chimera (murine variable regions, human IgG1/kappa constants); not shown: human IgG1 constant region (Uniprot P01857); human Kappa light chain constant region (UniProt P01834)) VH: QVQLQQSGPVLVKPGASVRISCKASGYTFTSYYIHWVKQRPGQGLEWIGWIYPGNVNTKYNENFRDKATLTADKSSSTSYMQLSSLTSEDSAVYFCARGIYYFDYWGQGTTLTVSS VL: IIVMTQTPKFLLVSAGDRVTITCKASQSVNNDVAWYQEKPGQSPKLLIYYASNRDTGVPDRFTGSGYGTDFTFTISTVQAEDLAVYFCHQDYSSPFTFGSGTKLEIK	0.33	no binding	no binding	< 5	0.05
N4_mAb 2 (antibody, human IgG1, V domains shown, Tested as chimera (human IgG1/kappa constants); not shown: human IgG1 constant region (Uniprot P01857); human Kappa light chain constant region (UniProt P01834)) VH: QVQLKQSGPNLVQPSQSLSITCTVSGFSLTTYGAHWVRQSPGKGLEWLGVIWRGGSTDYNAAFMSRLSITKDNSKSQVFFKMNSLQADDTAIYYCAKIGYDGYAMDNWGQGTSVTVSS VL: DFQVTQSPASLSASVGETVTITCRTSENIHNYLAWYQQKQGKSPQLLVYNAKTLADGVPSRFSGSGSGTQYSLKINSLQPEDFGTYYCQHFWSSPWTFGGGTKLEIK	0.64	no binding	no binding	< 5	1.8
N4_mAb 3 (antibody, human IgG1, V domains shown, Tested as chimera (human IgG1/kappa constants); not shown: human IgG1 constant region (Uniprot P01857); human Kappa light chain constant region (UniProt P01834)) VH: EVQLQQSGAELVKPGASVKLSCTVSGFNIKDTYMHWVKQRPEQGLEWIGRIDPANGNTKYDPKFQGKATIIADKASNTAYLQLSSLTSEDAAVYYCAHYYGSSYFAMDCWGQGTSVTVSS VL: DIVMTQSHKFMSTSVGDRVSITCKASQDVSTAVAWYQQKPGQSPKLLIYWASTRHTGVPDRFTGSGSGTDYTLTISSVQTEDLALYYCQQHYSTPLTFGAGTKLELK	0.3	no binding	no binding	< 5	45
N4_mAb 4 (antibody, human IgG1, V domains shown, Tested as chimera (human IgG1/kappa constants); not shown: human IgG1 constant region (Uniprot P01857); human Kappa light chain constant region (UniProt P01834)) VH: DVQLQESGPDLVKPSQSLSLTCTVTGYSITSAYNWHWIRQFPGNKLEWMGYIHYSGRTNYNPSLKSRISITRDTSKNQFFLQLNSLTTEDTATYYCARWITTATGWYLDVWGAGTTVTVSS VL: not shown		no binding	no binding	< 5	1.8
